According to patent US20150197559A1 (University of California, published 2015):
Where two headings read alike, the source gives them in different places.

T1: BoNT/B1 (Clostridium botulinum, UniProt P10844 2-1291)
T1 sequence: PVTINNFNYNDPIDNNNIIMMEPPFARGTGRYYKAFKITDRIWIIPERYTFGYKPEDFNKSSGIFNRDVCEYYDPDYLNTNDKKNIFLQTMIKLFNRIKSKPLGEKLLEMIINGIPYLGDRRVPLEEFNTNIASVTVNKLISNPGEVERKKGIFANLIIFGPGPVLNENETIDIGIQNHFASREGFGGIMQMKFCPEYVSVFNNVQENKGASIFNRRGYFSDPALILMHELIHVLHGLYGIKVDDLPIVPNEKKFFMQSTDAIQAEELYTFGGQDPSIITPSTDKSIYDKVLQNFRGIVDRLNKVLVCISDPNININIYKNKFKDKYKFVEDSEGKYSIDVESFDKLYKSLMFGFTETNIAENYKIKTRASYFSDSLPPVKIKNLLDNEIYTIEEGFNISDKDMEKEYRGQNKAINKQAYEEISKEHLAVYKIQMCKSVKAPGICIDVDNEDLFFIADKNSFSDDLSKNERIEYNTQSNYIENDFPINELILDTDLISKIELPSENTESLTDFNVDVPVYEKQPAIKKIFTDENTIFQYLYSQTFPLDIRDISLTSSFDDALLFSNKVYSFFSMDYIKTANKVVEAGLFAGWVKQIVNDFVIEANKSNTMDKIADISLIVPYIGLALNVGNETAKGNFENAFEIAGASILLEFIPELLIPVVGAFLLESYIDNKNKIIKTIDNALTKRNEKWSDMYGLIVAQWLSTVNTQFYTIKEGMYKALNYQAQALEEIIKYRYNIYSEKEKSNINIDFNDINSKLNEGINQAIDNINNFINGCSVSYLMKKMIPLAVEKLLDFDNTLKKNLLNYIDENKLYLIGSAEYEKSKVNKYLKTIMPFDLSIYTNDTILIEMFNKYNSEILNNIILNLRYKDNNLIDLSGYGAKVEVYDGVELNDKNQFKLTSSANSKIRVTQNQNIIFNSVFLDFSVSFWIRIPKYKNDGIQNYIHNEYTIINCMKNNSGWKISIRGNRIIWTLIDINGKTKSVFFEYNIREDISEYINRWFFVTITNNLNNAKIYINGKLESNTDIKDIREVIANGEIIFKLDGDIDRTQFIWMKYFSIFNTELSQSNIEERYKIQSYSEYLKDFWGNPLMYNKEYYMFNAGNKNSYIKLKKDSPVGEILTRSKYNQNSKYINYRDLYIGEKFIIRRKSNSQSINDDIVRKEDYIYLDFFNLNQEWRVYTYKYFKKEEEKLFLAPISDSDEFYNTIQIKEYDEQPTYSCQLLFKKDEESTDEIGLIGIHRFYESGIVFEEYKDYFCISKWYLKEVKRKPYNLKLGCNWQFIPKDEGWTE

B1: 1B18 scFv (scFv, V domains shown)
VH: EVQLVQSGGGLVQPGGSRRLSCAASGFYFNAYWMTWVRQAPGKGLEWVANINLDGTEIYYLDSVKGRFTVSRDNVKNSVFLQMSSLRVEDTAVYFCARLEWGGRNGWVSPWGQGTLVTVSS
VL: DVVMTQSPSSVSASVGDRVTITCRASQSISSYLNWYQQRPGKAPKLLIFAASSLQSAVPSRFSGSGSGTDFTLTISSLQPEDFATYYCQQSYSTPPTFGQGTKVEIKR
B2: 1B22 scFv (scFv)
scFv: QVQLQESGSRLVKPSQTLSLTCGVSGGSISSSSYSWSWIRQTPGKGLEWIGYIYHSGSTYYNPSLKSRVTMSVDKSRNQFSLNMSSVTAADTAVYYCARTAFYYENTGPIRCYLDFWGQGTLVTVSSGGGGSGGGGSGGGGSDIQMTQSPSTLSASIGDRVTISCRASQSIQSWLAWYQQRPGEAPKLLIYSASTLQTGVPSRFSGSGSGTDFTLTISSLQPEDFATYYCQQYNSYPLTFGQGTKLEIK
B3: 4B6 scFv (scFv)
scFv: QVQLVQSGAEVKKPGESLVISCKASGDKDTFTSFWIAWVRQMPGKGLEWMGIIYAGDSDTRYSPSFQGHVNISVDRSTNTAYLQWSSLKASDTAMYYCARHDSRYKYFYFGMDVWGQGTTVTVSSGGGGSGGGGSGGGGSDVVMTQSPSSLSASVGDRITITCQAGQDISNFLNWYQQKPGKAPKLLIRDASNLETGVPSRFSGGGSGTHFTFTISSLHPEDIATYFCQQYDNLPYTFGQGTKLEIK
B4: 2B25 scFv (scFv)
scFv: QVQLQESGPGLVKPSQTLSLSCSVSGASITSGTFYWSWIRQHPGKDLEWIGYIYYSGTTYYNPSLKSRVTLSVDTSKNQFSLKVTSLTAADTAVYHCARGVPIYDSSGTYRGTYFDYWGQGTLVTVSSGGGGSGGGGSGGGGSQPGLTQPPSASGTPGQRVTISCSGSSSNVGSNTVNWYQQLPGTAPKLLIYRNDQRPSGVPDRFSGSKSGASASLAISGLRSEDEADYYCAAWDDSLNGLLFGGGTQLTVL
B5: 1B10 scFv (scFv)
scFv: QVQLVESGGGVVQPGRSLRLSCAASGFTFSHYGMHWVRQSPGKGLEWVAVIWYDGRNPYYAASVKGRFTISRDNDKNTLYLQMNSLRAEDTAVYYCVKDLTRFHDTTFGVFEMWGPGTTVTVSSGGGGSGGGGSGGGGSEIVLTQSPSSLSASVGDRITITCRASQSISSWLAWYQQKPGKAPMVLIYKASSLENGVPSRFSGSGSGTEFTLTISSLQPDDFATYYCQQYSTYSRTFGQGTKVEIK
B6: 2B30 scFv (scFv)
scFv: EVQLVESGGGVVQPGRSLRLSCAASGFTFRRNAIHWVRQAPGKGLEWVAVISYDGVNKYYAASVKGRFAISRDNAKNTLFLQMNSLRPEDSAIYYCARDVSEYGDYVGHFDYWGQGTLVTVSSGGGGSGGGGSGGGGSSYELMQLPSASGTPGQRVSISCSGSSSNIGSNPVNWYQQLPGTAPKLLIYSNNHRPSGVPDRFSGSKSGTSASLAISGLQSEDEADYYCAAWDGSLNGHVVFGGGTKLTVL
B7: 2B24 scFv (scFv)
scFv: QVQLVESGGGVVQPGRSLRLSCAASGLTFSVYGMHWVRQAPGKGLEWVAVISHTGSEEYYADSVKGRFSISRDNSNNTLFLQMNSLRPEDTAVYYCVKDGPMAAIPFYYFDFWGQGTLVTVSSGGGGSGGGGSGGGGSQSVVTQPPSVSAAPGQKVTISCSGSSSNIGNNYVSWYQQLPGTAPKLLIYDNNKRPSGIPDRFSGSKSGTSATLGITGLQTGDEADYYCGTWDSSLSAGVFGGGTKLTVL
B8: 4B7 scFv (scFv)
scFv: QVQLQQSGPGLVKPSQTLSLTCSVSGGSINSDGSYWSWVRQHPGKGLEWIGYIYYSGTTYFNPSLKSRLTMSVDTSKNQFSLKMTSVTAADTAVYYCARMSGSRSYSQYYFDSWGQGTLVTVSSGGGGSGGGGSGGGGSDIQMTQSPSSLSASVGDRVTITCRASQSISSYLNWYQQKPGTAPKLLISDASTLQSGVPSRFSGSGSGTEFTLTISNLQPEDFATYYCQQFNSYVWTFGQGTKLEIK

Legend:
[1] = biological target: T1, BoNT/B1; assay: flow cytometry, yeast-displayed scFv, soluble toxin
[2] = biological target: T1, BoNT/B1; assay: as above; remark: listed apart in the source

Binder | Kd [1] | Kd [2]
B1 | 7.3 nM | 7.3 nM
B2 | 0.52 nM | 0.515 nM
B3 | 2.7 nM | 
B4 | 0.95 nM | 
B5 | 11.2 nM | 
B6 | 0.37 nM | 
B7 | 0.79 nM | 
B8 | 29.4 nM | 
